Results on one molecule are retold here after article PMC4701441, “Directed Evolution of a Highly Specific FN3 Monobody to the SH3 Domain of Human Lyn Tyrosine Kinase” (PLoS ONE, 2016).

The target of the assay is T1, GST-Lyn SH3 domain (human, UniProt P07948 63-123).
T1 construct: SH3 domain of human Lyn tyrosine kinase; Plasmid derived from pGEX-2T; also called GST fusion to the SH3 domain of Lyn
The assay can be described thus: ELISA; competition ELBA: GST-Lyn SH3 domain coated at 5 μg/mL, peptide at 0.1 μM to 40 μM added along with TA8-alkaline phosphatase fusion for 1 h. As to conditions: both partners purified.

T1 sequence (P07948 63-123): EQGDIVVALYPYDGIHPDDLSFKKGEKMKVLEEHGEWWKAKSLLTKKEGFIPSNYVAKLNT

On to GMPTPPLPPRPANLGERQA, for which the binding result is “binds”.
